According to patent US20060121462A1, “Receptor and screening methods” (priority 2003, published 2006):

Key:
C5L2 [1] = target: T1, C5L2 (Homo sapiens, UniProt Q9P296); assay: Competition binding with 125I-C5a, C5L2-transfected RBL cells
T1 construct: expressed in transfected cells
Description: (§1) FIG. 1 illustrates C3a des-Arg^77 and C4a des-Arg^77 bind to RBL cells expressing C5L2. RBL cells transfected with C5L2 were incubated with the stated concentrations of complement fragments for 10 min prior to the addition of 50 pM ^125I-C3a (A) or 50 pM ^125I-C5a (B). Results are the means of n (n shown in Table 1) separate experiments performed in duplicate±S.E.;
(§2) C5L2, C3aR and CD88-transfected RBL cells were produced as described (17). G16 was cloned from human monocytes mRNA and authenticated by sequencing. Human G16 and either C5L2 or CD88 were ligated into the bicistronic expression vector pIRES (Qiagen). Stable transfection of RBL-2H3 cells with pIRES constructs was achieved by electroporation (18). Cells underwent three rounds of fluorescence-activated cell sorting using anti-CD88 antibody (clone S5/1; Serotec) or anti-hemagglutinin peptide antibody (Roćhe Molecular Biochemicals, clone 12CA5), selecting the top 5% of receptor-positive cells in each round.
(§3) Competition binding assays were performed using 50 pM ^125I-C5a or ^125I-C3a (NEN) on adherent C5aR-transfected or C5L2-transfected RBL cells in 96-well microtiter plates (55 000/well) at 4° C. as described previously (22). Competition curves were generated by pre-incubating adherent cells with increasing concentrations of unlabelled complement fragments. The IC50, standard error values and linear regression analyses were obtained by using GraphPad Prism 2.0.

CD88 [2] = target: T2, CD88 (Homo sapiens, UniProt P21730); assay: Radiolabelled ligand competition receptor binding, CD88-transfected RBL cells
T2 construct: expressed in transfected cells
T2 sequence (P21730 1-350): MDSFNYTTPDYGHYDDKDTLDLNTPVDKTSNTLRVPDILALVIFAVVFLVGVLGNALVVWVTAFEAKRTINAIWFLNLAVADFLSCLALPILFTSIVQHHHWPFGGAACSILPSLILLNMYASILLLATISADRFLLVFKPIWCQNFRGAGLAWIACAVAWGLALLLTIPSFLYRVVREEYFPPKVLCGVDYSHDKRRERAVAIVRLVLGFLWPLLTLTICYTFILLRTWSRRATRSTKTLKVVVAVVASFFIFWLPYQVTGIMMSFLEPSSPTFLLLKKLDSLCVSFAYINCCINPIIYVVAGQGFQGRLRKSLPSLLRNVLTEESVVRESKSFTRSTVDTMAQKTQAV
From the text: as §2, §3

C5L2 [3] = target: T1, C5L2; assay: Competition binding with 125I-C3a, C5L2-transfected RBL cells; conditions: for IC50 / pD2 ± SE: C5L2 (^125I-C3a) expressed in RBL cells, 50 pM radioligand
Description: as §1, §2, §3

CD88 [4] = target: T2, CD88; assay: Degranulation of CD88-transfected RBL cells; format: cell-based
CD88+Gα16 = target: T3, CD88+Gα16 (Homo sapiens, UniProt P21730); assay: Degranulation of CD88+Gα16 co-transfected RBL cells; format: cell-based; conditions: 10 ng/ml PT
T3 construct: expressed in transfected cells
T3 sequence (P21730 1-350): T2 sequence (P21730 1-350)

C5L2 [5] = target: T1, C5L2; assay: Degranulation (β-hexosaminidase) and enhancement of IgE-receptor-mediated degranulation, C5L2-transfected RBL cells; format: cell-based
C3aR [6] = target: T4, C3aR (Homo sapiens, UniProt Q16581); assay: Radiolabelled ligand competition receptor binding, C3aR-transfected RBL cells
T4 construct: expressed in transfected cells
T4 sequence (Q16581 1-482): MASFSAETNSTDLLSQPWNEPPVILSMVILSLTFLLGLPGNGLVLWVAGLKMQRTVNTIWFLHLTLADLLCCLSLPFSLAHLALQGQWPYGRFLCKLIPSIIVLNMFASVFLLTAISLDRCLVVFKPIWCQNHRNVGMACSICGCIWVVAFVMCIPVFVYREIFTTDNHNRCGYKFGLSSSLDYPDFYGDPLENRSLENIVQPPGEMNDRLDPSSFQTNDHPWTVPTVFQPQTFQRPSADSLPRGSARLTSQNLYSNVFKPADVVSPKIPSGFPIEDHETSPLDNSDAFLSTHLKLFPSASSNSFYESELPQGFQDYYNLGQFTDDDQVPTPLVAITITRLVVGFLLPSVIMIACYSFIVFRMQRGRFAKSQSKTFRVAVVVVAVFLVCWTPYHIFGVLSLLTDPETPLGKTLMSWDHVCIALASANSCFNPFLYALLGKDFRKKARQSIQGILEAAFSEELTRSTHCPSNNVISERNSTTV
From the text: as §2, §3

C5L2 [7] = target: T1, C5L2; assay: Triglyceride synthesis (3H oleate incorporation) in HEK293 cells stably transfected with C5L2; format: cell-based
Description: FIG. 15: Functional Response of HEK293 Cells Stably Transfected with C5L2 to ASP and Insulin: Cells were tested for response to ASP and insulin stimulation of triglyceride synthesis with 100 μM ^3H oleate for 4 hours. Results are calculated as nmol ^3H oleate incorporated into triglyceride/mg cell protein where 0 ASP is set as 100%. […] As in many biologic assays, the concentration required for activity at 37° C. under dynamic conditions is greater than the binding affinity (which is assessed at 4° C. under static conditions). For example, insulin Kd is in the pM range, but nM concentrations are required for activity. ASP Kd is high nM range, but biologic activity is in low μM range.

C3aR [8] = target: T4, C3aR; assay: Degranulation of C3aR-transfected RBL cells; format: cell-based; conditions: RBL cells transfected with C3aR; data not shown
Description: (§4) Cellular activation was measured as the release of -hexosaminidase from intracellular granules (20). In the enhancement of degranulation assay, cells were treated with 1 μg/ml IgE^DNP (21) overnight, then with chemoattractants or peptides for 10 min prior to stimulation with 100 ng/ml DNP-HSA (Sigma) for 15 minutes. EC50 and standard error values were obtained by iterative curve fitting using GraphPad Prism 2.0.

[9] = target: T5, human formyl peptide-like receptor-1 (Homo sapiens, UniProt P25090); assay: Enhancement of degranulation, RBL cells transfected with an irrelevant receptor; format: cell-based; conditions: RBL cells transfected with FPRL-1, FIG. 3B
T5 construct: expressed in transfected cells; host or cells: RBL cells
T5 sequence (P25090 1-351): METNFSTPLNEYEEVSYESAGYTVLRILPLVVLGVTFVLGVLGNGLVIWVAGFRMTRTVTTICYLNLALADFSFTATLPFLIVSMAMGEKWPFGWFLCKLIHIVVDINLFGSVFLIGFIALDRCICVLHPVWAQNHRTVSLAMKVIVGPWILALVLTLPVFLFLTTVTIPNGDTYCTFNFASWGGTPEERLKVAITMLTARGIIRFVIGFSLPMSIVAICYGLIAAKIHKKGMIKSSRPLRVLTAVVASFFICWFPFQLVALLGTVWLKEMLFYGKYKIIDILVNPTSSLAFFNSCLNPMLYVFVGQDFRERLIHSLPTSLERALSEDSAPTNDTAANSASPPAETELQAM
Description: FIG. 3 illustrates C3a des-Arg^77 enhances the degranulation response to cross-linkage of the high affinity IgE receptor in cells transfected with C5L2. RBL cells transfected with A), C5L2 or B), an irrelevant receptor (human formyl peptide-like receptor-1) were incubated overnight with […] IgE^DNP and then treated with the stated concentrations of C5a des-Arg^74, C4a des-Arg^77 or C3a des-Arg^77 or ASP for 15 minutes prior to the addition of the cross-linking agent, HSA-DNP at 100 ng/ml. Degranulation was assessed as the secretion of β-hexosaminidase. Results are shown as a percentage of the release stimulated by 100 ng/ml HSA-DNP in the absence of anaphylatoxin (control=1) and are means of 3-6 separate experiments performed in triplicate, ±S.E.
as §4

C3aR [10] = target: T4, C3aR; assay: Fluorescent ligand binding/uptake (FACS), HEK 293 cells transiently transfected with C3aR; conditions: HEK 293 transiently transfected with C3aR; mean±SD, n=3
Description: (§5) HEK 293 cells were transfected with C3aR (A) or C5L2 (B) and three days later cells were incubated for 30 minutes with the indicated concentrations of FLUOS-labelled C3a or ASP, respectively. Binding/uptake was assessed by FACS, and the percentage of cells above a fluorescence intensity of 8 was determined. The fluorescence histograms at the highest and lowest ligand concentrations are shown in the insets;
(§6) HEK 293 cells were seeded into 6-well plates at 1×10^6 cells/well the day before transfection. C5L2 in vector pEE6hCMV.neo (Celltech) or C3aR in vector pcDNA1/AMP (Invitrogen) at 2 μg DNA/well were transfected with Lipofectamine2000 (5 μl/well) (Invitrogen) according to the manufacturer's protocol. Cells were assayed for binding/uptake three days post-transfection.
(§7) ASP or C3a was labelled with FLUOS (Roche Biochemicals) at a molar ratio of 1:10 (ligand:FLUOS) for two hours according to the manufacturer's recommendations. Labelled ligand was separated from free FLUOS on a Sephadex G25M column and stored in aliquots at −80° C.
(§8) Cells were incubated with the indicated concentrations of FLUOS-labelled ASP or C3a for 30 minutes at 37° C. in binding buffer (23) and washed three times with cold binding buffer. Cells were then detached with 0.25% trypsin/0.02% EDTA in PBS, fixed with 1% paraformaldehyde, washed with PBS, and assayed by fluorescence-activated cell scanning.

C5L2 [11] = target: T1, C5L2; assay: Fluorescent ligand binding/uptake (FACS), HEK 293 cells transiently transfected with C5L2
Description: as §5, §6, §7, §8

[12] = C5L2 (^125I-C5a) expressed in RBL cells, 50 pM radioligand
[13] = HEK-C5L2 stable transfectants, 100 μM ^3H oleate, 4 hours

T1 sequence (Q9P296 whole entry): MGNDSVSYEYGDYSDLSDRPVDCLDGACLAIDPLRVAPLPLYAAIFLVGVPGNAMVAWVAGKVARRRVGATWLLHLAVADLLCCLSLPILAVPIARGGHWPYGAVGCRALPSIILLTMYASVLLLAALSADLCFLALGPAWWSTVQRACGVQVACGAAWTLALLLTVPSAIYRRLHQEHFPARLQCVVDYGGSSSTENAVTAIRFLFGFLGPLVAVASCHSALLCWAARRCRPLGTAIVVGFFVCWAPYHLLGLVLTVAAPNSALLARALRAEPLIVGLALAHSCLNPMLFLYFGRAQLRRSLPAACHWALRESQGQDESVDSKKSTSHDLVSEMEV

## C3a: 77 amino acid complement fragment
C5L2 [1]; [12]
  IC50: 23 µM
CD88 [2]; CD88 expressed in RBL cells, competition binding, 4° C., read-out: IC50 (concentration of unlabelled ligand resulting in 50% of maximal radioligand binding)
  IC50: 23 µM
C5L2 [3]
  IC50: 0.167 µM
  pD2 ± SE: 6.78 ± 0.10

## pertussis toxin [reference compound]
CD88 [4]; CD88 alone, 0-10 ng/ml PT for 4 h prior to 50 nM C5a
  effect on degranulation response to C5a: inhibited the degranulation response
CD88+Gα16
  effect on degranulation response to C5a: a small inhibition of degranulation
C5L2 [5]; C5L2 alone, 10 ng/ml PT for 4 h, FIG. 4C
  effect on enhancement of degranulation by ASP/C3a des-Arg^77: can be inhibited by pre-treating cells with pertussis toxin

## ^125I-ASP: ^125I-labelled ASP [reference compound]
C3aR [6]; ^125I-labelled ligand, data not shown
  binding to C3aR-transfected cells: does not bind to C3aR-transfected cells

## insulin
C5L2 [7]; [13]
  stimulation of triglyceride synthesis: neither HEK nor HEK-C5L2 are responsive to insulin
C5L2 [7]; non-transfected HEK cells
  stimulation of triglyceride synthesis: neither HEK nor HEK-C5L2 are responsive to insulin

## C3a des-Arg^77
C3aR [8]
  stimulation of degranulation: neither C3a des-AXg^77 nor C4a des-Arg^77 can stimulate degranulation
C3aR [6]; Table I
  affinity for C3aR: no detectable affinity
CD88 [4]; RBL cells transfected with CD88, data not shown
  stimulation of degranulation: neither C3a des-AXg^77 nor C4a des-Arg^77 can stimulate degranulation
C5L2 [1]; [12]
  IC50: 18 µM
  pD2 ± SE: 4.73 ± 0.16
C5L2 [1]; FIG. 1B
  competition with ^125I-C5a binding to C5L2: cannot compete effectively
[9]
  enhancement of degranulation: small enhancement of degranulation
CD88 [2]
  competition with ^125I-C5a binding to CD88: cannot compete effectively
C5L2 [5]; without IgE receptor cross-linking, data not shown
  direct stimulation of degranulation: neither recombinant nor purified C3a des-Arg^77 (or any other ligand) is able to directly stimulate degranulation
C5L2 [3]
  IC50: 0.526 µM
  pD2 ± SE: 6.24 ± 0.10
C5L2 [3]; FIG. 1A
  competition with ^125I-C3a for C5L2 binding: can compete strongly

## ASP: Plasma ASP (C3a des-Arg^77), human C3a des-Arg^77 purified as acylation-stimulating protein
C5L2 [7]; 37° C. under dynamic conditions
  concentration for biologic activity: low μM range
C5L2 [7]; [13]
  stimulation of triglyceride synthesis: increasing triglyceride synthesis in a concentration dependent manner
C5L2 [7]; non-transfected HEK cells
  stimulation of triglyceride synthesis: not responsive to ASP
C5L2 [5]; enhancement of IgE-mediated degranulation, FIG. 3A
  EC50 compared with recombinant C3a des-Arg^77: identical EC50
C5L2 [3]; binding affinity assessed at 4° C. under static conditions
  Kd: high nM range

## FLUOS-ASP: ASP labelled with FLUOS at a molar ratio of 1:10
C3aR [10]
  binding (basal binding=100%): 103%±14%
C5L2 [11]; HEK 293 transiently transfected with C5L2, 30 minutes at 37° C., flow cytometry, read-out: half maximal fluorescence intensity (binding/uptake)
  Kd: ~0.003 µM
C5L2 [11]; mock-transfected HEK 293 cells, 10 nM
  binding to mock-transfected cells: no binding
